From the DeepSol protein solubility set

Assay: soluble on expression in E. coli; label from the status in PepcDB or PDB records

MGSSHHHHHHSSGLGPGGSHMASMSDSEVNQEAKPEVKPEVKPETHINLKVSDGSSEIFFKIKKTTPLRRLMEAFAKRQGKEMDSLRFLYDGIRIQADQTPEDLDMEDNDIIEAHREQIGGSLGRACKYENPARWSEQEQAIKGVYSSWVTDNILAMARPSSELLEKYHIIDQFLSHGIKTIINLQRPGEHASCGNPLEQESGFTYLPEAFMEAGIYFYNFGWKDYGVASLTTILDMVKVMTFALQEGKVAIHCHAGLGRTGVLIACYLVFATRMTADQAIIFVRAKRPNSIQTRGQLLCVREFTQFLTPLRNIFSEGHHHHHH
soluble on expression in E. coli: soluble

MSLKLIGIVGSNADSSYNRLLLQYIGKEFYKMFDLEILEIKDIPMFNQSKDQTNSVLIQNMNRKILQADGVIIATPEHNHTIPAGLKSVLEWLSFKIHPLENKPVMIVGCSYYDQGTSRAQLHLRQILDAPGVNAIVMPGNEFLLGKAKEAFDENGNLIAEGTRQFLESTLQKFVEFIDVISKLEGAKPKDLPEDLHAKGTIETTIEGVDMAADDWVEQAAEAVQAVEGDTYVKLDRGILTVDQLNYFLKSMPMELTYADSNNQFLYYNKKMAAEEMFAKRQPGQVGNPLANCHPPKALKNVEWVIQQLRSGKTDAIRVHVPMHGPDTYVVHNYQAMYDDNGNYAGINEYILDFKPIVDWYLKQTGQELVGGKNVDAVSGASKKEAPETADSVSSASVHEEESATEKPTVDSVSSASIKEEGHHHHHH
soluble on expression in E. coli: soluble

MGSDKIHHHHHHMSRKSNAFSGSAAGLQHPDGRNDSGQKQQMSSPAALLQSDTLGSRLTSRGDLTSFFMELTAEIGADSYMLVAIVHDQDRNDARIVSSNWIFDAIELIGKRLIASLAQGALTVAPGIRPRPLVAARAPDADGLVSGEEARLLDVLGHAEIYSLRLNVGRQRLFALFSAATSGQIDQPALMKAQLKCCYALSHIPQLIAAAAMQDPLSDRERECLFWVSEGKTTDEVAVILGVSSNTVNSYITHAIQKFAASNRAMAIATAIRSGII
soluble on expression in E. coli: not soluble

GPGSMLAASRLARGVAETVTRENFTISRLTNGLRVITCEDGNGITGMGLFSLNGPKFEEEGSFGAAAVMESLPLRSNTRMTTETISQSLGVFGNAYKVTNNREAMSVMLMMPRYHRKEGLDVLNGMWLHPTDNDEEFAVAKAQTLHRSSLMSRDATSMLFELVHKAGWSGRGLGNPLSPTEQQLEQLTLERFHAFHRRYTTPERTVLAATGVADHKTFVQEAEVRLQFPQATAPSLHSSSAETANKAAAATAQLHPYTGGCEYVQNTMAPESMNKFQEKNLSHIALFFQAIPMAHPDYFTFSVIQTLLGGGTSFSSGGPGKGMQTKLFREVLNREPNVHGMECITAWYSDGGLIGLYGSAPHEHVNNLLKIIIFQAASISQRVTPVHVEMAKNQLSSQLILLGEGREQLLNDMGFNLLVHNYTITPQETIQGSAQVTMARLHEVCAQLIEHPITFAVYGETKGMPEYRELVQALKKSYASLSKSTPA
soluble on expression in E. coli: not soluble

MLLKLKCTVNNYAWGPKGNSSMAGSLALDGGHIPNLDKDKPYAEFWVGTHANGPAHVIEKDIALKQLLATSPELQGKHEKGNLSFLFKVLSVLGPLSIQIHPTKEQGKLLHATDPKNYPDDNHKPEIAIALTEFELLSGFRQHSQISEYLKLYSEIQELLTEEEKSQIDSLGSYGESSAQVLKKIFSRIWRTPKEKLQIVVDKLARRIQGHENKTALDEIIVYLFTLYPGDVGVFAPIFLNYFKLQPGEATFLEPNMPHAYLKGDCVECMADSDNTIRAGLTPKYIDVESLVEMLNYDETLLPKYIPNELDDGSLLFTPRGIDEFWVQEVKGPAGSIYQLPYSESCSVLTVLYGTATVTLGDASQVLNRGEVVFIGATHDAERPKINISDDFLAFRAFTPSPRALESLSNKRLIID
soluble on expression in E. coli: not soluble

MDDELRGLLARYARGELSADDARRAILRYPKWRVAEIDGELETVALDDGTPMLIAESSASDGREYSGLELVRDIAPLVGGLSFDPDEPWGSAFRPGALPELQNWARTVELEDAVAKPGPGQRDLLYEGPWWVAVSPGTGRPAVHRADGLDVITIMTAPDAAATFRRTERHRGLDVVRLGPALWGDLAKRSDFDGVRLNPLRPLAQLWPPHVPAMLVAGCDPRPNAEPLPARTVAEIHLWLDQHGARQEKRELSNRATPVGEVTVARAWWNYDRREIAFTRVAPASDTEGLGSVPSRILCAGKLRQSIQSKLAGLPRLTWRADAWHRQRAALAVGWALELEKLVCGERVPFAALRTPEGAHLWHLEPQAFTARAIRKLRDRAASFR
soluble on expression in E. coli: soluble

MAHHHHHHMLRCAPSKLFRATPLLRVWAAEEDDASAPRTTFRNVRPGRLLRLWRQMRHRAWMLYAWDEEWVSPMQEGYLHQQRLEQVCFAPLSAYGVVPGSYCDPLLYNTKSTSPFRWHVANVQGDIVGHWYMDADELFRIEDWQPREPDDPLEMFPRPPPMLLRWDESVDEHGNRAFRYRYHYDMMGPTGKWEAYPRCPFSHLYHGGPDQHGRAEGYGFQQGHLLRCDEAEEEVLRRIMEGEDREWEMVKRTEAVQEPWSYPGKIRPRDFEGAVERAKARFRERVRHGKETDPSEDPEYDLVQASEYVEPRDGRRAEWRHLWASGRKPGESLPFHVAFNDGLCFEGNEGGPPAHPAAHYEAAHYEAPYGRYEDADAAAARAAEAAHNAACEQSLSEAMARHRRLFGDTSGAPSGPKAPLPTGCRPMRCAPGPPLPSGRSRSSGARAVGSGPVCGAGARDGESEGEGRGGEAPLGYGARACSWRRREGWV
soluble on expression in E. coli: not soluble

MGSDKIHHHHHHMSIYRKIDRNKIQFDFIVHKTGKNFFEDEILKLGGRIYRLPNKRKHPFKYKQEFLNVIKNYKIIHVHSVYAFTYYEVKWARQCQKSVILHSHNSDAKLLRKIIHYLFKHLQNHYVSVRLSPSKQAAKWMFNEGHDKVVYLYNGFDTTKFQFDMNSRIEIREQLGLANNDYIIGCVGRLDWQKDPIYLLRLFEKLKANDNAYKLIFIGDGSYRQTLERETHQKGLVNDVIFTGSVSNVPEYLSALDIFVLPTRYEGLGISLIEAQINGLPVFTNKDVPKEAVINQNMYLLDKGDSELWVDAINKELNVINLKKRKVNLSDFNQYNIETVVKKLQNIYLQLLS
soluble on expression in E. coli: not soluble

GAMRIMRPDDANVAGNVHGGTILKMIEEAGAIISTRHCNSQNGERCVAALARVERTDFLSPMCIGEVAHVSAEITYTSKHSVEVQVHVMSENILTGTKKLTNKATLWYVPLSLKNVDKVLEVPPIVYLRQEQEEEGRKRYEAQKLERMETK
soluble on expression in E. coli: soluble

MSLGDSETIRILVSTDNHVGYNERDPIRGDDSWKSFHEVMCLAKQHDVDMVLLAGDLFHENKPSRKSMYQVMRSIRMNCLGDKPCELQLLSDASENFQGAFNHVNYEDLDINVGIPIFSIHGNHDDPSGEGHLAALDILQVSGLLNYYGRTPESDNIQLKPVLLQKGRTKLALYGMSNVRDERLFRTFRDGKVKFFRPSVQKEDWYNLICVHQNHHAYTETGYLPENFLPEFLDLVIWGHEHECLINPREGHHHHHH
soluble on expression in E. coli: soluble

AHHHHHHGSKLIEMLKEITQVPGISGYEERVREKIIEWIKDYADYKVDEIGNLIVELGEGEVKAVFMAHMDEIGLLITGITQDGKLRFRKVGGIDDRLLYGRHVDVITENGKLDGVIGALPPHLNVKGVKDVVPWYQLTIDIGAESKEEALSLGVKPLDYAVFKKHFSVLNNKIVSTRSLDDRFGVVALVQAIRNLVDHELSGKFIFAFTVQEEIGLKGAKFLAEKYSPEYAFAIDSFACCSELTGDVRLGGGAVIRAVDNSAIYSRDLARKVWEIAEKNNIPIQIGVTGGGTDASVFQHKSKVLALSVPMKYLHSEVEMLNVKDLEALIALIEAITFEI
soluble on expression in E. coli: soluble

MGSDKIHHHHHHMKEKLRLYHTNDLHSHFENWPKIVDYIEQKRKEHQSDGEETLVFDIGDHLDRFQFVTEATFGKANVDLLNRLHIDGAAIGNNEGITLPHEELAALYDHAEFPVIVSNLFDKNGNRPSWAVPYHIKSLKNGMSIAFLGVTVPYYPVYDKLGWTVTDALESIKETILEVKGQADIIVLLSHLGILDDQAVAEAVPEIDVILESHTHHLLEDGQVVNGVLLASAEKYGHYVGCVEITVDSVQRSINSKTASVQNMAEWTGESAETKAFLNEKEREAEEKLSDAVAELAQDAEVKWFEESELPLLLAYALKEWCETDISMVNSGVILGPLKAGPVTKLDLHRICPHPINPVAVRLTGEELKETIVHAASEQMEQLRIKGLGFRGEVMGKMVYAGVEVETKRLDDGITHVTRITLNGEDIEKHKQYSVAVLDMFTLGKLFPLIRDAAEKEYFMPEFLRDLLAWKLAQ
soluble on expression in E. coli: not soluble
